Measurements from patent publication US7192728B2, “Screening assays for agents that alter inhibitor of apoptosis (IAP) protein regulation of caspase activity” (The Burnham Institute, priority 1997, dated 2007).
Entries after “also recorded” stand apart in the source; their conditions may differ. Where a SMILES comes first, the peptide text is derived from it. The star is where a group is joined. Cbz = O=C(OCc1ccccc1)*; CH2F = FC*

T1: caspase-7 (Homo sapiens, UniProt P55210)
T1 construct: Purified active caspase concentrations ranged from 0.1 nM to 10 nM; His6; made in house; host or cells: E. coli BL21(DE3)pLysS
T1 sequence (P55210 24-198 limits assumed): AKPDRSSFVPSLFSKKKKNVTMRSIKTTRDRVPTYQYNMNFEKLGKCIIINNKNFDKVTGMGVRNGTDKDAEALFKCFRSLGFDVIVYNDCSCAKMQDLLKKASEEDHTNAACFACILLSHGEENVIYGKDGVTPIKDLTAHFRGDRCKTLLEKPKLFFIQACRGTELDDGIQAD
T1 sequence (P55210 207-303 limits assumed): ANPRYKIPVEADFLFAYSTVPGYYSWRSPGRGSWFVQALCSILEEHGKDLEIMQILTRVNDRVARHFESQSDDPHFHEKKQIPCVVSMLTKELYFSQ

T2: caspase-3 (Homo sapiens, UniProt P42574)
T2 construct: to produce the 17–20 kDa mature, fully processed large subunit of the active caspase-3 enzyme; a smaller, fully processed, subunit of about 11 kDa; His6; made in house; host or cells: E. coli BL21(DE3)pLysS
T2 sequence (P42574 29-175 limits assumed): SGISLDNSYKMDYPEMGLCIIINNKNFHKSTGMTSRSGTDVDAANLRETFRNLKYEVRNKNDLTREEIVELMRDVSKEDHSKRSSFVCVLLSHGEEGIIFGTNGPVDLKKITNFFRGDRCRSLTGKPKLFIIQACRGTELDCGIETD
T2 sequence (P42574 176-277 limits assumed): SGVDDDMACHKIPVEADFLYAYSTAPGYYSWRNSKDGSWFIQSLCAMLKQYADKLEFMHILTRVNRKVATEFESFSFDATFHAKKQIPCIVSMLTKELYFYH

T3: caspase-6 (Homo sapiens, UniProt P55212)
T3 construct: Purified active caspase concentrations ranged from 0.1 nM to 10 nM; His6; made in house; host or cells: E. coli BL21(DE3)pLysS
T3 sequence (P55212 24-179 limits assumed): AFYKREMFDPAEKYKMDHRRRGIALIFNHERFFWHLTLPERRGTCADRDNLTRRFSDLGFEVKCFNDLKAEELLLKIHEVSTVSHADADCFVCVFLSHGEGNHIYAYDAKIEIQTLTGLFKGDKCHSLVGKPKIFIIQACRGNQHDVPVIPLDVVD
T3 sequence (P55212 194-293 limits assumed): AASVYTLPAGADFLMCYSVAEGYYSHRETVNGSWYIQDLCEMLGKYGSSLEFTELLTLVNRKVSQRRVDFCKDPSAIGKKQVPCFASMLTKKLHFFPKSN

B1: GST-CD40 cytosolic domain: recombinant control protein, GST fusion of CD40 cytosolic domain (protein)
chain: KKVAKKPTNKAPHPKQEPQEINFPDDLPGSNTAAPVQETLHGCQPVTQEDGKESRISVQERQ
modifications: not fully specified; also: GST fusion partner not in chain
B2: c-IAP-1(BIR): construct comprising the BIR domains of c-IAP-1 (positions 1 to 350) (protein)
chain: MHKTASQRLFPGPSYQNIKSIMEDSTILSDWTNSNKQKMKYDFSCELYRMSTYSTFPAGVPVSERSLARAGFYYTGVNDKVKCFCCGLMLDNWKLGDSPIQKHKQLYPSCSFIQNLVSASLGSTSKNTSPMRNSFAHSLSPTLEHSSLFSGSYSSLSPNPLNSRAVEDISSSRTNPYSYAMSTEEARFLTYHMWPLTFLSPSELARAGFYYIGPGDRVACFACGGKLSNWEPKDDAMSEHRRHFPNCPFLENSLETLRFSISNLSMQTHAARMRTFMYWPSSVPVQPEQLASAGFYYVGRNDDVKCFCCDGGLRCWESGDDPWVEHAKWFPRCEFLIRMKGQEFVDEIQG
modifications: left off: a dimerising Fc or GST
B3: c-IAP-2(BIR): construct comprising the BIR domains of c-IAP-2 (positions 1 to 335) (protein)
chain: MNIVENSIFLSNLMKSANTFELKYDLSCELYRMSTYSTFPAGVPVSERSLARAGFYYTGVNDKVKCFCCGLMLDNWKRGDSPTEKHKKLYPSCRFVQSLNSVNNLEATSQPTFPSSVTNSTHSLLPGTENSGYFRGSYSNSPSNPVNSRANQDFSALMRSSYHCAMNNENARLLTFQTWPLTFLSPTDLAKAGFYYIGPGDRVACFACGGKLSNWEPKDNAMSEHLRHFPKCPFIENQLQDTSRYTVSNLSMQTHAARFKTFFNWPSSVLVNPEQLASAGFYYVGNSDDVKCFCCDGGLRCWESGDDPWVQHAKWFPRCEYLIRIKGQEFIRQVQ
modifications: left off: a dimerising Fc or GST

Columns and labels:
[1] = system: DEVD-pNA hydrolysis activity in Jurkat T cell cytosolic extracts; assay: Cytochrome c/dATP-induced caspase activation (DEVD-pNA hydrolysis) in Jurkat T cell cytosolic extracts; assay type: biochemical; conditions: for DEVD-pNA hydrolysis, ΔA405 after 15 min: untreated ≈0.02; for DEVD-pNA hydrolysis, ΔA405 after 20 min: untreated ≈0.025
Experimental: (§1) Cells were washed with ice cold buffer A (20 mM Hepes (pH 7.5), 10 mM KCl, 1.5 mM MgCl2, 1 mM EDTA, 1 mM DTT and 0.1 mM PMSF) and suspended in 1 vol buffer A, then incubated on ice for 20 min. 293 cells were disrupted by passage 15× through a 26 gauge needle and Jurkat T cells were disrupted by dounce homogenization in 2 ml using 15 strokes with a pestle B. Cell extracts (10–15 mg total protein/ml) were clarified by centrifugation at 16,000×g for 30 min, then the NaCl concentration was increased by 50 mM. Cytosolic fractions were used immediately or stored frozen at −80° C.
(§2) Caspase activity was assayed by release of either 7-amino-4-trifluoromethyl-coumarin (AFC) or p-nitroanilide (pNA) from benzylyoxycarbonyl-DEVD (SEQ ID NO: 2) or benzylyoxycarbonyl-YVAD (SEQ ID NO: 3) synthetic peptides using a Molecular Devices Spectromax 340 for AFC labeled peptides or Perkin/Elmer LS50B for pNA labeled peptides (see Example II; see, also, Zhou et al., supra, 1997). Cytosolic extracts from 293 cells or Jurkat T cells were used directly (negative control) or were treated with 1 μM cytochrome c and 1 mM dATP or with cytochrome c, dATP and 0.2 μM GST-XIAP. Additional control reactions were performed by substituting 2 μM GST-Bcl-2, GST-Bax, GST-NM23 or GST-CD40 cytosolic domain, or 5 μM His6-S5a protein for GST-XIAP. DEVD-pNA hydrolysis was measured at various times and multiple experiments were performed using several different GST-XIAP preparations.

[2] = system: DEVD-pNA hydrolysis activity in 293 cell cytosolic extracts; assay: Cytochrome c/dATP-induced caspase activation (DEVD hydrolysis) in 293 cell cytosolic extracts; assay type: biochemical, human; conditions: for DEVD-pNA hydrolysis, ΔA405 after 15 min: 293 extracts + cytochrome c/dATP, GST-XIAP 0.2 μM, GST controls 2 μM, His6-S5a 5 μM, untreated ≈0.01; for DEVD hydrolysis in activated 293 cell cytosolic extracts (in words): 3 μM, extracts activated 30 min with cytochrome c and dATP
Experimental: as §1, §2

[3] = system: HeLa cell nuclei in cytosolic extract; assay: Apoptosis of isolated nuclei in cell-free system (cytochrome c/dATP); conditions: 0.4 μM protein with 10 μM cytochrome c and 1 mM dATP; 37° C., 60 min; baseline about 15%, cytochrome c/dATP alone >95%
Experimental: as §1
Isolated nuclei were prepared from HeLa cells (Martin et al., supra, 1995). Approximately 5×10^4 to 1×10^5 nuclei were added to 20 μl cytosolic extract and apoptosis was initiated by adding 10 μM horse heart cytochrome c (Sigma, Inc.; St. Louis Mo.) and 1 mM dATP, alone (positive control) or with cytochrome c, dATP and either 0.4 μM GST-XIAP or 0.4 μM GST-Bcl-2. Following incubation at 37° C. for 60 min., nuclei were stained with 1 μg/ml of acridine orange and ethidium bromide and the percentage nuclei with apoptotic features, including extremely condensed chromatin and the genesis of fragmentation of nuclei, was determined.

[4] = system: 293T cells; assay: Bax-induced apoptosis and caspase activation in transfected 293T cells; assay type: cell-based, human; conditions: 24 hr; Bax alone about 25%; zVAD-fmk 50 μM
Experimental: N-benzyloxycarbonyl-Val-Ala-Asp fluoromethylketone (zVAD-fmk; 50 μM) (Bachem Calif.; Torrance, Calif.) was added immediately after transfection of the Bax plasmid. Transfection efficiency was uniformly 80–90%, as determined by X-Gal staining following cotransfection with pCMV-βGal.
Cells were maintained in culture for 24 hr, then floating and attached cells were harvested and an aliquot was removed and the percent of dead cells was determined by either trypan blue or propidium iodide (PI) dye exclusion assay. A second aliquot was used to assess the percentage of apoptotic cells with subdiploid DNA content by FACS analysis of PI stained, ethanol fixed cells. The remaining cell pellets were lysed in 10 mM HEPES (pH 7.5), 142 mM KCl, 1 mM EGTA, 1 mM DTT, 0.2% NP-40, 0.1 mM PMSF and used for immunoblot analysis or for protease assays.

[5] = target: T1, caspase-7; assay: Inhibition of purified recombinant caspase-7, DEVD substrate hydrolysis and progress curves; assay type: biochemical; conditions: DEVD-pNA hydrolysis
Experimental: Purified recombinant caspase-1, caspase-3, caspase-6, caspase-7 or caspase-8 were incubated with DEVD-pNA, either alone or with a 10-fold to 50-fold molar excess of GST-XIAP (20 μM) and substrate hydrolysis was measured. Purified active caspase concentrations ranged from 0.1 nM to 10 nM. XIAP concentration ranged from 0.1 nM to 500 nM. Assays were performed in caspase buffer (50 mM Tris, pH 7.4, 100 mM NaCl, 10% sucrose, 5–10 mM DTT, 1 mM EDTA and 0.1% CHAPS).

[6] = target: T2, caspase-3; assay: Inhibition of purified recombinant caspase-3, DEVD substrate hydrolysis and progress curves; assay type: biochemical; conditions: DEVD-pNA hydrolysis
Experimental: Purified recombinant caspase-1, caspase-3, caspase-6, caspase-7 or caspase-8 were incubated with DEVD-pNA, either alone or with a 10-fold to 50-fold molar excess of GST-XIAP ([…]) and substrate hydrolysis was measured. Purified active caspase concentrations ranged from 0.1 nM to 10 nM. XIAP concentration ranged from 0.1 nM to 500 nM. Assays were performed in caspase buffer (50 mM Tris, pH 7.4, 100 mM NaCl, 10% sucrose, 5–10 mM DTT, 1 mM EDTA and 0.1% CHAPS).
Equilibria were determined from progress curves when substrate hydrolysis reached a steady-state; slopes were calculated by curve fit analysis using the cricket graph program. Experiments were performed using purified recombinant caspase-3, caspase-6, or caspase-7. DEVD-AFC hydrolysis was measured using 0.1 nM caspase and a range of concentrations (0.2 to 12 μM) of recombinant XIAP (rXIAP). […] Average ratio velocities (vi/vo, where “vi” indicates presence of GST-XIAP and “vo” indicates absence of GST-XIAP) were determined.
Caspase activity was determined essentially as described in Example II, using the benzylyoxycarbonyl-DEVD-AFC (SEQ ID NO: 2) substrate and was assayed at 37° C. using the Perkin-Elmer LS50B fluorometric plate reader in the kinetic mode with excitation and emission wavelengths of 400 nm and 505 nm, respectively. […] Reactions were performed in caspase buffer (50 mM Hepes, 100 mM NaCl, 1 mM EDTA, 0.1% CHAPS, 10% sucrose, 5 mM DTT). The inhibition constant, Ki, was calculated as described (Zhou et al., supra, 1997). Immunoblot analysis was performed as described in Example I.B.3.

[7] = target: T1, caspase-7; assay: GST pull-down binding to caspase-7; conditions: glutathione-Sepharose beads, immunoblot
Experimental: (§3) Following incubation at 4° C. for 60 min, the beads were removed by centrifugation and washed twice with 100 vol 50 mM Tris (pH 7.5), 150 mM KCl, 2 mM DTT and 0.025% Triton-X100, then subjected to SDS-PAGE and immunoblot assay (see Example I.B.3).

[8] = target: T2, caspase-3; assay: GST pull-down binding to caspase-3; conditions: glutathione-Sepharose beads, immunoblot
Experimental: as §3

[9] = target: T3, caspase-6; assay: GST pull-down binding to caspase-6; conditions: glutathione-Sepharose beads, immunoblot

Molecule	DEVD-pNA hydrolysis, ΔA405 after 15 min [1]	DEVD-pNA hydrolysis, ΔA405 after 20 min [1]	DEVD-pNA hydrolysis, ΔA405 after 15 min [2]	binding of caspase-7 (in words) [7]	binding of caspase-3 (in words) [8]	DEVD hydrolysis in activated 293 cell cytosolic extracts (in words) [2]	other results
GST-Bcl-2: recombinant control protein, GST fusion of Bcl-2 [reference compound]	≈ 0.09	≈ 0.1	≈ 0.1				apoptotic nuclei [3]: greater than 95%
CC(C)[C@H](NC(=O)OCc1ccccc1)C(=O)N[C@@H](C)C(=O)N[C@@H](CC(=O)O)C(=O)CF [zVAD-fmk, N-benzyloxycarbonyl-Val-Ala-Asp fluoromethylketone, reference compound] (Cbz-Val-Ala-Asp-CH2F)							apoptotic cells (PI staining) in Bax expressing cells [4]: about 5%
B1	≈ 0.09	≈ 0.1	≈ 0.1	No caspase binding was observed; also recorded: did not bind	No caspase binding was observed; also recorded: did not bind		inhibition of caspase-7 in vitro (in words) [5]: had no effect; inhibition of caspase-3 in vitro (in words) [6]: had no effect; binding of caspase-6 (in words) [9]: No caspase binding was observed
B2				bound	bound	inhibited DEVD hydrolysis	
B3				bound	bound	inhibited DEVD hydrolysis	
